Reference: publication PMC6179999

Legend:
P27467 [1] = assay: AUC; AUC-FDS of GFP-Wnt3a in culture medium with serum from which afamin was immuno-depleted before the cultivation; peak areas normalised by the whole area
P27467 [2] = assay: AUC; AUC-FDS of GFP-Wnt3a in culture medium with mock-treated serum; peak areas normalised by the whole area
P27467 [3] = assay: AUC; AUC-FDS; conditioned medium of L cells secreting GFP-Wnt3a co-cultured with HEK293 cells secreting mouse sFRP2

Substance: GFP-tagged mouse Wnt3a secreted from stably transformed mouse L cells
- relative area of the HMW peaks, afamin pre-depleted serum (P27467 [1]): that of the HMW peaks was increased from 51.1 ± 4.8% to 69.6 ± 1.2%
- relative area of the HMW peaks, mock-treated serum (P27467 [2]): that of the HMW peaks was increased from 51.1 ± 4.8% to 69.6 ± 1.2%
- relative area of HMW complex peaks, with sFRP2 (P27467 [3]): relative area of HMG peaks was decreased from 46.4 ± 0.8% to 33.6 ± 2.9% by the addition of sFRP2
